Source: US20200317768A1 (published 2020)
Where a chain is given by its changes, count along the chain named. Numbers in names are those of the source. Each block holds one binder with its values, some of them ahead of it.

Legend:
[1] = biological target: T1, cynomolgus monkey FcγRIIa1 extracellular domain, C-terminal His-tag (cynomolgus monkey); test: SPR (Biacore); KD of SG1 / KD of variant;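 also: relative to parent M103205H795-SG1 carrying the SG1 human heavy chain constant region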
T1 construct: also called cyno FcγRIIa1; cynoFcgRIIa1
T1 chain: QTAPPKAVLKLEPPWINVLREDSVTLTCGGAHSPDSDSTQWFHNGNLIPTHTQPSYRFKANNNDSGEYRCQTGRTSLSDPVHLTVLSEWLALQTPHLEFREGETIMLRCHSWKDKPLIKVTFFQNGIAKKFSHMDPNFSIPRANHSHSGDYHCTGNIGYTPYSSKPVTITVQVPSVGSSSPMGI
Description: (§1) The kinetic analysis of interactions between these antibodies and FcγR was carried out using BIACORE® T200 or BIACORE® 4000 (GE Healthcare). HBS-EP+ (GE Healthcare) was used as the running buffer, and the measurement temperature was set to 25° C. A chip produced by immobilizing Protein A. Protein A/G or mouse anti-human IgG kappa light chain (BD Biosciences) onto a Series S Sensor Chip CM4 or CM5 (GE Healthcare) by the amine-coupling method was used. […] After the measurement, the antibody captured on the chip was washed off by allowing reaction with 10 mM glycine-HCl, pH1.5 and 25 mM NaOH so that the chip was regenerated and used repeatedly. The sensorgrams obtained as measurement results were analyzed by the 1:1 Langmuir binding model using the BIACORE® Evaluation Software to calculate the binding rate constant ka (L/mol/s) and dissociation rate constant kd (l/s), and the dissociation constant KD (mol/L) was calculated from these values. […] Regarding such interactions, KD values were calculated using the following 1:1 binding model described in BIACORE® T100 Software Handbook BR1006-48 Edition AE.
(§2) The behavior of interacting molecules according to the 1:1 binding model on BIACORE® can be described by Equation 1: Req=C·R max/(KD+C)+RI, wherein, Req is a plot of steady-state binding levels to analyte concentration. C is concentration, RI is bulk refractive index contribution in the sample, and Rmax is analyte binding capacity of the surface. When this equation is rearranged, KD can be expressed as Equation 2: KD=C·Rmax/(Req−RI)−C. KD can be calculated by substituting the values of Rmax, RI, and C into Equation 1 or Equation 2. From the current measurement conditions, RI=0, C=2 μmol/L can be used.

[2] = biological target: T2, cynomolgus monkey FcγRIIa2 extracellular domain, C-terminal His-tag (cynomolgus monkey); test: SPR (Biacore); KD of SG1 / KD of variant;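 also: relative to parent M103205H795-SG1 carrying the SG1 human heavy chain constant region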
T2 construct: also called cyno FcγRIIa2; cynoFcgRIIa2
T2 chain: T1 chain with P95T, T121A, I127K, A128S, K130N, D135N, R142Q
Description: as §1, §2

[3] = biological target: T3, cynomolgus monkey FcγRIIa3 extracellular domain, C-terminal His-tag (cynomolgus monkey); test: SPR (Biacore); KD of SG1 / KD of variant;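 also: relative to parent M103205H795-SG1 carrying the SG1 human heavy chain constant region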
T3 construct: also called cyno FcγRIIa3; cynoFcgRIIa3
T3 chain: T1 chain with P95T, T121A, A128S, H133P, D135N
Description: as §1, §2

[4] = biological target: T4, cynomolgus monkey FcγRIIb extracellular domain, C-terminal His-tag (cynomolgus monkey); test: SPR (Biacore); KD of SG1 / KD of variant;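 also: relative to parent M103205H795-SG1 carrying the SG1 human heavy chain constant region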
T4 construct: also called cyno FcγRIIb; cynoFcγRIIb
T4 chain: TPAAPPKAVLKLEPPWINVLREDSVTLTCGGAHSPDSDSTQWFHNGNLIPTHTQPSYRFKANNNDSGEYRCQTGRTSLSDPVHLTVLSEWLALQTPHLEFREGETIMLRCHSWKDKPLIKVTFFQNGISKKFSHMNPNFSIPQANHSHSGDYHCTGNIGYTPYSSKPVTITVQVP
Description: as §1, §2

[5] = biological target: T5, cynomolgus monkey FcγRIIIaS extracellular domain, C-terminal His-tag (cynomolgus monkey, UniProt Q8SPW2 21-206 at identity 1.00)); test: SPR (Biacore); KD of SG1 / KD of variant
T5 construct: also called cyno FcγRIIIaS; cynoFcγRIIIaS
T5 chain: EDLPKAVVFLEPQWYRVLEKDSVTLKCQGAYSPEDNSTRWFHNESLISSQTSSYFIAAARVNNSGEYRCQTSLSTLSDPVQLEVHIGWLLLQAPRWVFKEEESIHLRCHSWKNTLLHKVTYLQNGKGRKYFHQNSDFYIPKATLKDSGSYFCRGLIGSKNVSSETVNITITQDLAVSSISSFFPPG
Description: as §1, §2

[6] = biological target: T6, human FcγRIIaR extracellular domain, C-terminal His-tag (human, UniProt P12318 34-217); test: SPR (Biacore); KD of SG1 / KD of variant
T6 construct: also called human FcγRIIa (type R); FcgRIIaR
T6 chain: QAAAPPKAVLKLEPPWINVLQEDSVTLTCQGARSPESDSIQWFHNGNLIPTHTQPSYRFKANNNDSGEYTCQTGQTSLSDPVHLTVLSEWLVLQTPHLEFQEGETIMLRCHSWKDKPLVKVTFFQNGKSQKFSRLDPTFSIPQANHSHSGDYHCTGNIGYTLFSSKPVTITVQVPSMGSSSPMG
Description: as §1, §2

[7] = biological target: T7, human FcγRIIb extracellular domain, C-terminal His-tag (human, UniProt P31994 43-217); test: SPR (Biacore); KD of SG1 / KD of variant
T7 construct: also called human FcgRIIb; FcgRIIb
T7 sequence: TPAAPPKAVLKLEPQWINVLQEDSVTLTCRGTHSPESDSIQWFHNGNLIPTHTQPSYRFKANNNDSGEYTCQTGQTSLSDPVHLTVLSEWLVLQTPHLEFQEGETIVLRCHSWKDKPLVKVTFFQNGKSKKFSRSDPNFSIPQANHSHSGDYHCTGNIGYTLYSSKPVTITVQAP
Description: as §1, §2

[8] = biological target: T1, cynomolgus monkey FcγRIIa1 …; test: SPR (Biacore), antibody captured, FcgR analyte
[9] = biological target: T2, cynomolgus monkey FcγRIIa2 …; test: SPR (Biacore), antibody captured, FcgR analyte
[10] = biological target: T3, cynomolgus monkey FcγRIIa3 …; test: SPR (Biacore), antibody captured, FcgR analyte
[11] = biological target: T4, cynomolgus monkey FcγRIIb extracellular …; test: SPR (Biacore), antibody captured, FcgR analyte
[12] = biological target: T5, cynomolgus monkey FcγRIIIaS …; test: SPR (Biacore), antibody captured, FcgR analyte
[13] = biological target: T8, human FcγRIIaH extracellular domain, C-terminal His-tag (human, UniProt P12318 34-217); test: SPR (Biacore), antibody captured, FcgR analyte
T8 construct: also called human FcγRIIa (type H); FcgRIIaH
T8 sequence: T6 chain with R134H

[14] = biological target: T6, human FcγRIIaR extracellular domain, …; test: SPR (Biacore), antibody captured, FcgR analyte
[15] = biological target: T7, human FcγRIIb extracellular domain, …; test: SPR (Biacore), antibody captured, FcgR analyte
[16] = biological target: T9, human FcγRIIIaV extracellular domain, C-terminal His-tag (human, UniProt P08637 17-208); test: SPR (Biacore), antibody captured, FcgR analyte
T9 construct: also called human FcgRIIIaV; FcgRIIIaV
T9 sequence (P08637 17-208 F176V): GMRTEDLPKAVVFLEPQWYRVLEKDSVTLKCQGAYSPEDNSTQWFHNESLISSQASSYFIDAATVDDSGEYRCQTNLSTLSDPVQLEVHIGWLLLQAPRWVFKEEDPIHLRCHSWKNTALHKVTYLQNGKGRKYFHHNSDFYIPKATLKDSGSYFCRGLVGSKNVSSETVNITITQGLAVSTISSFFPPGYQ

[17] = biological target: T10, cynomolgus monkey FcγRIIa1 extracellular domain, C-terminal His-tag (cynomolgus monkey); test: SPR; FcgR bound per captured antibody, normalized to SG1
T10 construct: also called cyno FcγRIIa1; FcgRIIa1
T10 chain: T1 chain
Description: as §1
(§3) The value of the amount of FcγR binding was obtained by dividing the amount of FcγR bound by the amount of each antibody captured.

[18] = biological target: T11, cynomolgus monkey FcγRIIa2 extracellular domain, C-terminal His-tag (cynomolgus monkey); test: as above
T11 construct: also called cyno FcγRIIa2; FcgRIIa2
T11 chain: T1 chain with P95T, T121A, I127K, A128S, K130N, D135N, R142Q
Description: as §1, §3

[19] = biological target: T12, cynomolgus monkey FcγRIIa3 extracellular domain, C-terminal His-tag (cynomolgus monkey); test: as above
T12 construct: also called cyno FcγRIIa3; FcgRIIa3
T12 chain: T1 chain with P95T, T121A, A128S, H133P, D135N
Description: as §1, §3

[20] = biological target: T13, cynomolgus monkey FcγRIIb extracellular domain, C-terminal His-tag (cynomolgus monkey); test: as above
T13 construct: also called cyno FcγRIIb; cynoFcγRIIb
T13 chain: T4 chain
Description: as §1, §3

B2: M103205H795-SG165/M103202L889-SK1 (antibody, human IgG1, kappa)
heavy: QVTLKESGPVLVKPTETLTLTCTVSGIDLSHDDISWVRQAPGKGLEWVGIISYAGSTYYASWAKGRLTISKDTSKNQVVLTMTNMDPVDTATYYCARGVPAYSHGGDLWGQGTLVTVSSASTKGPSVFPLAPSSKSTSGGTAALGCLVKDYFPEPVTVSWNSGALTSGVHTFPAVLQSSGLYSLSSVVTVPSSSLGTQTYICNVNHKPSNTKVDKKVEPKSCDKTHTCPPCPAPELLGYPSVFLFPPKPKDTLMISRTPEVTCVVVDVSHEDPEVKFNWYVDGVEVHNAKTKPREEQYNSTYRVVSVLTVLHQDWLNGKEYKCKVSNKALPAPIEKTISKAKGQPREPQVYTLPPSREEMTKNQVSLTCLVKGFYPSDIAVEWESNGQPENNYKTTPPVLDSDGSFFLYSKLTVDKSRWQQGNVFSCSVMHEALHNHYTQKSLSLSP
light: DIVMTQSPATLSLSPGERATLSCTSSQSVYHANWLSWFQQKPGQPPKLLIYWASTLAYGVPSRFSGSGSGTDFTLTISSLQPEDAATYYCAGGYGGGRYAFGQGTKVEIKRTVAAPSVFIFPPSDEQLKSGTASVVCLLNNFYPREAKVQWKVDNALQSGNSQESVTEQDSKDSTYSLSSTLTLSKADYEKHKVYACEVTHQGLSSPVTKSFNRGEC
notes: also called G237Y
amount of FcgR binding (SG1 = 100) [17]: 18 SG1 = 100
amount of FcgR binding (SG1 = 100) [18]: 17 SG1 = 100
amount of FcgR binding (SG1 = 100) [19]: 30 SG1 = 100
amount of FcgR binding (SG1 = 100) [20]: 30 SG1 = 100

B3: M103205H795-SG171/M103202L889-SK1 (antibody, human IgG1, kappa)
heavy: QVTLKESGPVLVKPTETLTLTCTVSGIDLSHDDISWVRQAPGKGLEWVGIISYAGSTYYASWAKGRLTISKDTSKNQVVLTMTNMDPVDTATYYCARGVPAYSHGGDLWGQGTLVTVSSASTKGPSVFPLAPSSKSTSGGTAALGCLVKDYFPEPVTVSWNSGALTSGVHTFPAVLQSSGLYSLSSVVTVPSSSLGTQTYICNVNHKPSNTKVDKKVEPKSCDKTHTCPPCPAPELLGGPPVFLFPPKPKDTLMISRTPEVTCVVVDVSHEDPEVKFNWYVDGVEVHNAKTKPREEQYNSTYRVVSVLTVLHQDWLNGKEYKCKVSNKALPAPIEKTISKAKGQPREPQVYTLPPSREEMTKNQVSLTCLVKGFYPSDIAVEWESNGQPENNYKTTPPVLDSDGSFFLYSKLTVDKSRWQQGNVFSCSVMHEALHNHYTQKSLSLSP
light: B2 light
notes: also called S239P
amount of FcgR binding (SG1 = 100) [17]: 17 SG1 = 100
amount of FcgR binding (SG1 = 100) [18]: 20 SG1 = 100
amount of FcgR binding (SG1 = 100) [19]: 18 SG1 = 100
amount of FcgR binding (SG1 = 100) [20]: 20 SG1 = 100

Now from value to binder:

KD fold (SG1 = 1) [1]: 3.6 fold
KD fold (SG1 = 1) [2]: 5.7 fold
KD fold (SG1 = 1) [3]: 4.5 fold
KD fold (SG1 = 1) [4]: 4.1 fold
KD fold (SG1 = 1) [5]: 0.16 fold
KD fold (SG1 = 1) [6]: 0.8 fold
KD fold (SG1 = 1) [7]: 6.2 fold
Kd [8]: 890 nM
Kd [9]: 820 nM
Kd [10]: 3800 nM
Kd [11]: 440 nM
Kd [12]: 2300 nM
Kd [13]: 650 nM
Kd [14]: 13000 nM
Kd [15]: 740 nM
Kd [16]: 7700 nM
B1: M103205H795-MY144/M103202L889-SK1 (antibody, human IgG1, kappa)
heavy: QVTLKESGPVLVKPTETLTLTCTVSGIDLSHDDISWVRQAPGKGLEWVGIISYAGSTYYASWAKGRLTISKDTSKNQVVLTMTNMDPVDTATYYCARGVPAYSHGGDLWGQGTLVTVSSASTKGPSVFPLAPSSKSTSGGTAALGCLVKDYFPEPVTVSWNSGALTSGVHTFPAVLQSSGLYSLSSVVTVPSSSLGTQTYICNVNHKPSNTKVDKKVEPKSCDKTHTCPPCPAPELLNGPSVFLFPPKPKDTLMISRTPEVTCVVVDVSDEDPEVKFNWYVDGVEVHNAKTKPREEQYNSTYRVVSVLTVLHQDWLNGKEYKCKVSNKALPAPIEKTISKAKGQPREPQVYTLPPSREEMTKNQVSLTCLVKGFYPSDIAVEWESNGQPENNYKTTPMVLDSDGSFFLYSKLTVDKSRWQQGNVFSCSVMHEALHNHYTQKSLSLSP
light: B2 light
notes: P369M is read as a misprint of P396M

amount of FcgR binding (SG1 = 100) [17]: 13 SG1 = 100
amount of FcgR binding (SG1 = 100) [18]: 13 SG1 = 100
amount of FcgR binding (SG1 = 100) [19]: 17 SG1 = 100
amount of FcgR binding (SG1 = 100) [20]: 14 SG1 = 100
B4: M103205H795-SG175/M103202L889-SK1 (antibody, human IgG1, kappa)
heavy: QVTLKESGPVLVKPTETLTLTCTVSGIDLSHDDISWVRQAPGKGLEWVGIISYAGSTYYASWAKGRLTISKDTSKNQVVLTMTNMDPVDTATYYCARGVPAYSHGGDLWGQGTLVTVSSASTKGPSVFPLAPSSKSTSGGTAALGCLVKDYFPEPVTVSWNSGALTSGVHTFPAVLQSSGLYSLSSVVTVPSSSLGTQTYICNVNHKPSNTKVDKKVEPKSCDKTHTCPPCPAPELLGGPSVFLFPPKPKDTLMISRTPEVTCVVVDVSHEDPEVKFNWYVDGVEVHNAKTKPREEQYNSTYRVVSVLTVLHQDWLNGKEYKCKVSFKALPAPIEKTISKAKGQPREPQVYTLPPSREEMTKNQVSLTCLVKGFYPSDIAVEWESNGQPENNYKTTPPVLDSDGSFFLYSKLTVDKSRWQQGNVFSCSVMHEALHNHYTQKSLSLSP
light: B2 light
notes: also called N325F
